Assay results: US6828304B1, “Peptides for treatment of cancer” (Dabur Research Foundation, priority 2000, dated 2004)
Peptide text beside a SMILES is read from it. * marks the point of attachment. Palmitoyl = CCCCCCCCCCCCCCCC(=O)*; Myristoyl = CCCCCCCCCCCCCC(=O)*; Octanoyl = CCCCCCCC(=O)*; Butyryl = CCCC(=O)*

How the values were obtained:
[1] = system: PTC (primary colon) tumor cells; test: MTT cytotoxicity assay, PTC cells; type: cell-based, human; conditions: 48 hours
Excerpt: (§1) The cytotoxic effect of Lipo peptide analogs, DT-A1 (SEQ ID NO: 2), DT-B1 (SEQ ID NO: 3), DT-01 (SEQ ID NO: 4), DT-M1 (SEQ ID NO: 5) and DT-P1 (SEQ ID NO: 6) was studied by MTT assay which is based on the principle of uptake of MTT [3-[4,5-dimethylthiazol-2-yl]-2,5-diphenyl tetrazolium bromide], a tetrazolium salt by the metabolically active cells where it is metabolized by active mitochondria into a blue colored formazan product which can be read spectrophotometrically. Briefly, tumor cells PTC (primary colon) KB (Oral squamous), U87MG (Glioblastoma), HBL100 (Breast), HeP2 (Laryngeal), ECV304 (Endothelial), PA-1 (Ovary) and L132 (Lung) were incubated with the peptide analogs for 48 hours at 37° C. in a 96-well culture plate, followed by the addition of 100 μg MTT and _further incubation of 1 hour. The formazan crystals formed inside the cells were dissolved with a detergent comprising 10% Sodium dodecyl sulfate and 0.01 N HCl and optical density read on a multiscan ELISA reader. The optical density was directly proportional to the number of proliferating and metabolically active cells.

[2] = system: U87MG (Glioblastoma) tumor cells; test: MTT cytotoxicity assay, U87MG cells; type: cell-based; conditions: 48 hours
Excerpt: as §1

[3] = system: HBL100 (Breast) tumor cells; test: MTT cytotoxicity assay, HBL100 cells; type: cell-based; conditions: 48 hours
Excerpt: as §1

[4] = system: HeP2 (Laryngeal) tumor cells; test: MTT cytotoxicity assay, HeP2 cells; type: cell-based; conditions: 48 hours
Excerpt: as §1

[5] = system: ECV304 (Endothelial) cells; test: MTT cytotoxicity assay, ECV304 cells; type: cell-based; conditions: 48 hours
Excerpt: as §1

[6] = system: L132 (Lung) tumor cells; test: MTT cytotoxicity assay, L132 cells; type: cell-based; conditions: 48 hours
Excerpt: as §1

[7] = system: KB (Oral squamous) tumor cells; test: MTT cytotoxicity assay, KB cells; type: cell-based; conditions: 48 hours
Excerpt: as §1

[8] = system: PA-1 (Ovary) tumor cells; test: MTT cytotoxicity assay, PA-1 cells; type: cell-based; conditions: 48 hours
Excerpt: as §1

[9] = system: human colon adenocarcinoma (PTC) xenografts; test: Antitumor activity in PTC xenografts in nude mice; type: in vivo
Description: The antitumor activity of DT-B1 (SEQ ID NO: 3) was studied in human colon adenocarcinoma (PTC) xenografts in nude mice. PTC tumor xenografts were grown in Balb/c a thymic mice by subcutaneous inoculation of a single cell suspension of PTC cells (15×10^6 cells/100 EL). The tumor bearing animals were divided into 2 groups of three animals each including one group comprising untreated control animals. Treatment with DT-B1 was initiated when the average tumor volumes, as measured using a vernier caliper, were between 1.3 cm^3. Solutions of DT-B1 was prepared at a concentration of 126 μg/ml and intravenously administered to the assigned group of tumor bearing animals at a dose of 12.6 μg/100 μL twice a day so that the total dose of 25.2 μg/day was administered to each animal. The treatment was continued for a period of 14 days.
The antitumor activity of the compounds was monitored by measuring tumor volumes every fourth day using the formula W*W*L*0.4 (W=smaller diameter, L=larger diameter). The percentage inhibition of tumor growth was calculated using the formula (1-tumor volume-treated/tumor volume-control)* 100.

Row | Compound | Percentage cytotoxicity ([2]; 1 nM) [%] | Percentage cytotoxicity ([2]; 10 nM) [%] | Percentage cytotoxicity ([2]; 100 nM) [%] | Percentage cytotoxicity ([2]; 1 μM) [%] | Percentage cytotoxicity ([3]; 1 nM) [%] | Percentage cytotoxicity ([3]; 10 nM) [%] | Percentage cytotoxicity ([3]; 100 nM) [%] | Percentage cytotoxicity ([4]; 1 nM) [%] | Percentage cytotoxicity ([4]; 10 nM) [%] | Percentage cytotoxicity ([4]; 100 nM) [%] | Percentage cytotoxicity ([4]; 1 μM) [%] | Percentage cytotoxicity ([5]; 1 nM) [%] | Percentage cytotoxicity ([5]; 10 nM) [%] | Percentage cytotoxicity ([5]; 100 nM) [%] | Percentage cytotoxicity ([5]; 1 μM) [%] | Percentage cytotoxicity ([6]; 1 nM) [%] | Percentage cytotoxicity ([6]; 10 nM) [%] | Percentage cytotoxicity ([6]; 100 nM) [%] | Percentage cytotoxicity ([6]; 1 μM) [%] | Percentage cytotoxicity ([7]; 1 nM) [%] | further results
1 | CCCCCCCCCCCCCC(=O)N[C@@H](CC(C)C)C(=O)N[C@@H](CCSC)C(=O)N[C@@H](Cc1ccc(O)cc1)C(=O)N1CCC[C@H]1C(=O)N[C@H](C(=O)N[C@@H](Cc1ccc(O)cc1)C(=O)N[C@@H](CC(C)C)C(=O)N[C@@H](CCCCN)C(=O)O)[C@@H](C)O [DT-M1, Myristoyl-Leu-Met-Tyr-Pro-Thr-Tyr-Leu-Lys-OH] (Myristoyl-LMYPTYLK-OH) | 29.4 ± 1.2 | 44.9 ± 2.7 | 32.2 ± 2.2 | 5.0 ± 2.5 | 21.9 ± 2.4 | 31.6 ± 3.8 | 30.4 ± 2.4 | 15.8 ± 2.2 | 18.7 ± 2.2 | 22.9 ± 1.3 | 12.9 ± 1.2 | 21.9 ± 1.6 | 16.9 ± 3.1 | 22.9 ± 1.0 | 17.7 ± 1.2 | 10.6 ± 1.9 | 26.7 ± 1.1 | 16.8 ± 2.1 | 9.6 ± 2.4 | 21.0 ± 26 | Percentage cytotoxicity ([1]; 1 nM): 26 ± 0.5%; Percentage cytotoxicity ([1]; 10 nM): 25 ± 3.6%; Percentage cytotoxicity ([1]; 100 nM): 31 ± 4.6%; Percentage cytotoxicity ([1]; 1 μM): 30 ± 3.9%; Percentage cytotoxicity ([3]; 1 μM): 29.6 ± 2.3%; Percentage cytotoxicity ([7]; 10 nM): 23.9 ± 3.1%; Percentage cytotoxicity ([7]; 100 nM): 19.0 ± 3.2%; Percentage cytotoxicity ([7]; 1 μM): 12.9 ± 1.6%; Percentage cytotoxicity ([8]; 1 nM): 27.5 ± 2.9%; Percentage cytotoxicity ([8]; 10 nM): 42.0 ± 2.2%; Percentage cytotoxicity ([8]; 100 nM): 25.9 ± 3.3%; Percentage cytotoxicity ([8]; 1 μM): 15.7 ± 1.2%
2 | Ac-LMYPTYLK-OH [DT-A1, Acetyl-Leu-Met-Tyr-Pro-Thr-Tyr-Leu-Lys-OH] | 10.4 ± 1.3 | 29.9 ± 2.2 | 26.9 ± 1.5 | 21.9 ± 1.4 | 19.9 ± 3.5 | 31.9 ± 3.5 | 30.5 ± 1.3 | 14.9 ± 2.2 | 39.9 ± 1.8 | 21.9 ± 2.7 | 19.7 ± 1.1 | 8.0 ± 2.5 | 16.5 ± 3.4 | 22.0 ± 2.3 | 10.8 ± 3.4 | 13.9 ± 2.9 | 26.4 ± 3.2 | 14.6 ± 3.1 | 12.9 ± 2.4 | 25.9 ± 1.6 | Percentage cytotoxicity ([3]; 1 μM): 28.9 ± 1.2%; Percentage cytotoxicity ([7]; 10 nM): 31.0 ± 2.1%; Percentage cytotoxicity ([7]; 100 nM): 26.9 ± 2.1%; Percentage cytotoxicity ([7]; 1 μM): 21.0 ± 2.3%; Percentage cytotoxicity ([8]; 1 nM): 21.9 ± 1.5%; Percentage cytotoxicity ([8]; 10 nM): 24.9 ± 2.6%; Percentage cytotoxicity ([8]; 100 nM): 18.5 ± 2.3%; Percentage cytotoxicity ([8]; 1 μM): 6.9 ± 3.2%
3 | Palmitoyl-Leu-Met-Tyr-Pro-Thr-Tyr-Leu-Lys-OH (Palmitoyl-LMYPTYLK-OH) [DT-P1] | 9.6 ± 1.8 | 34.0 ± 2.6 | 32.9 ± 2.5 | 18.4 ± 2.4 | 25.7 ± 2.5 | 34.9 ± 3.6 | 33.3 ± 1.4 | 13.9 ± 1.2 | 24.9 ± 2.8 | 28.9 ± 1.7 | 14.9 ± 1.3 | 18.8 ± 2.6 | 19.9 ± 3.4 | 31.9 ± 1.3 | 25.9 ± 1.4 | 10.9 ± 1.9 | 29.0 ± 1.2 | 19.6 ± 1.1 | 17.8 ± 2.2 | 21.9 ± 2.6 | Percentage cytotoxicity ([1]; 1 nM): 27 ± 3.1%; Percentage cytotoxicity ([1]; 10 nM): 21 ± 1.2%; Percentage cytotoxicity ([1]; 100 nM): 33 ± 1.1%; Percentage cytotoxicity ([1]; 1 μM): 31 ± 3.1%; Percentage cytotoxicity ([3]; 1 μM): 28.9 ± 1.3%; Percentage cytotoxicity ([7]; 10 nM): 32.0 ± 2.1%; Percentage cytotoxicity ([7]; 100 nM): 23.0 ± 2.2%; Percentage cytotoxicity ([7]; 1 μM): 18.0 ± 2.6%; Percentage cytotoxicity ([8]; 1 nM): 20.5 ± 1.9%; Percentage cytotoxicity ([8]; 10 nM): 21.9 ± 2.2%; Percentage cytotoxicity ([8]; 100 nM): 25.6 ± 3.3%; Percentage cytotoxicity ([8]; 1 μM): 21.7 ± 2.2%
4 | n-Butanoyl-Leu-Met-Tyr-Pro-Thr-Tyr-Leu-Lys-OH (Butyryl-LMYPTYLK-OH) [DT-B1] | 33.9 ± 0.6 | 39.7 ± 2.7 | 30.7 ± 1.7 | 20.6 ± 1.7 | 33.0 ± 1.5 | 34.8 ± 1.8 | 33.9 ± 2.8 | 8.7 ± 1.5 | 22.9 ± 1.6 | 14.9 ± 5.3 | 12.9 ± 4.4 | 18.7 ± 5.3 | 19.9 ± 4.2 | 31.9 ± 2.8 | 25.8 ± 2.3 | 13.9 ± 1.9 | 26.8 ± 1.9 | 10.7 ± 2.6 | 11.8 ± 2.3 | 21.9 ± 0.5 | Percentage cytotoxicity ([1]; 1 nM): 36 ± 1.0%; Percentage cytotoxicity ([1]; 10 nM): 44 ± 1.3%; Percentage cytotoxicity ([1]; 100 nM): 48 ± 1.7%; Percentage cytotoxicity ([1]; 1 μM): 31 ± 1.5%; Percentage cytotoxicity ([3]; 1 μM): 32.8 ± 2.2%; Percentage cytotoxicity ([7]; 10 nM): 25.9 ± 4.1%; Percentage cytotoxicity ([7]; 100 nM): 18.9 ± 3.2%; Percentage cytotoxicity ([7]; 1 μM): 14.8 ± 2.3%; percentage inhibition of tumor growth as compared to controls ([9]; day 20, intravenous 12.6 μg twice a day (25.2 μg/day) for 14 days, PTC xenografts in nude mice): 95.85%; antitumor activity on PTC xenografts (in words) ([9]; intravenous 25.2 μg/day for 14 days, tumor kinetics till day 20): significant antitumor activity; Percentage cytotoxicity ([8]; 1 nM): 43.9 ± 2.9%; Percentage cytotoxicity ([8]; 10 nM): 45.8 ± 1.2%; Percentage cytotoxicity ([8]; 100 nM): 38.5 ± 1.6%; Percentage cytotoxicity ([8]; 1 μM): 33.7 ± 1.6%
5 | n-Octanoyl-Leu-Met-Tyr-Pro-Thr-Tyr-Leu-Lys-OH (Octanoyl-LMYPTYLK-OH) [DT-O1] | 37.0 ± 1.6 | 38.7 ± 1.7 | 28.6 ± 1.2 | 21.9 ± 1.5 | 30.0 ± 1.4 | 33.7 ± 2.8 | 32.8 ± 2.8 | 8.6 ± 2.5 | 22.9 ± 1.2 | 17.9 ± 2.3 | 18.8 ± 4.2 | 16.9 ± 1.3 | 27.9 ± 3.2 | 24.9 ± 2.4 | 23.9 ± 2.2 | 19.4 ± 2.9 | 25.9 ± 1.7 | 14.9 ± 2.5 | 7.9 ± 2.3 | 21.0 ± 0.6 | Percentage cytotoxicity ([1]; 1 nM): 28 ± 5.4%; Percentage cytotoxicity ([1]; 10 nM): 32 ± 0.3%; Percentage cytotoxicity ([1]; 100 nM): 33 ± 3.2%; Percentage cytotoxicity ([1]; 1 μM): 29 ± 5.5%; Percentage cytotoxicity ([7]; 10 nM): 34.9 ± 3.1%; Percentage cytotoxicity ([7]; 100 nM): 26.9 ± 2.2%; Percentage cytotoxicity ([7]; 1 μM): 23.9 ± 1.3%; Percentage cytotoxicity ([8]; 1 nM): 26.0 ± 3.9%; Percentage cytotoxicity ([8]; 10 nM): 37.8 ± 2.2%; Percentage cytotoxicity ([8]; 100 nM): 22.6 ± 3.6%; Percentage cytotoxicity ([8]; 1 μM): 6.0 ± 1.4%
